Experimental data: patent publication US20090130676A1 (GENERAL HOSPITAL, published 2009)

B1: pep7 (FIG. 4B numbering), thioredoxin prey fusion (designed binder, not shown: large carriers)
chain: MSDKIIHLTDDSFDTDVLKADGAILVDFWAEWCGPQLYAGCYLGVVIASSLSIRVGPCKMIAPILDEIADEYQGKLTVAKLNIDQNPGTAPKYGIRGIPTLLLFKNGEVAATKVGALSKGQLKEFLDANLA
B2: pep8 (designed binder, not shown: large carriers; small tags and cut ends)
chain: MSDKIIHLTDDSFDTDVLKADGAILVDFWAEWCGPYSFVHHGFFNFRVSWREMLAGPCKMIAPILDEIADEYQGKLTVAKLNIDQNPGTAPKYGIRGIPTLLLFKNGEVAATKVGALSKGQLKEFLDANLA
modifications: peptide loop embedded in the thioredoxin active-site loop between Cys33 and Cys36 (may form a disulfide)
notes: The purified His6 form is m43
B3: pep14 (FIG. 4B numbering), thioredoxin prey fusion (designed binder, not shown: large carriers)
chain: MSDKIIHLTDDSFDTDVLKADGAILVDFWAEWCGPWSPELLRAMVAFRWLLERRPGPCKMIAPILDEIADEYQGKLTVAKLNIDQNPGTAPKYGIRGIPTLLLFKNGEVAATKVGALSKGQLKEFLDANLA
B4: pep12 (FIG. 4B numbering), thioredoxin prey fusion (designed binder, not shown: large carriers)
chain: MSDKIIHLTDDSFDTDVLKADGAILVDFWAEWCGPRPLTGRWVVWGRRHEECGLTGPCKMIAPILDEIADEYQGKLTVAKLNIDQNPGTAPKYGIRGIPTLLLFKNGEVAATKVGALSKGQLKEFLDANLA
B5: pep2 (designed binder, not shown: small tags and cut ends)
chain: MSDKIIHLTDDSFDTDVLKADGAILVDFWAEWCGPLVCKSYRLDWEAGALFRSLFGPCKMIAPILDEIADEYQGKLTVAKLNIDQNPGTAPKYGIRGIPTLLLFKNGEVAATKVGALSKGQLKEFLDANLA
modifications: Peptide loop sits in the TrxA active-site loop; flanking Cys33 and Cys36 may form a disulfide
notes: the purified His6 form is m40
B6: pep10 (designed binder, not shown: small tags and cut ends)
chain: MSDKIIHLTDDSFDTDVLKADGAILVDFWAEWCGPQVWSLWALGWRWLRRYGWNMGPCKMIAPILDEIADEYQGKLTVAKLNIDQNPGTAPKYGIRGIPTLLLFKNGEVAATKVGALSKGQLKEFLDANLA
modifications: Peptide loop sits in the TrxA active-site loop; flanking Cys33 and Cys36 may form a disulfide
notes: The purified His6 form is m44
B7: pep6 (FIG. 4B numbering), thioredoxin prey fusion (designed binder, not shown: large carriers)
chain: MSDKIIHLTDDSFDTDVLKADGAILVDFWAEWCGPRVKLGYSFWAQSLLRCISVGGPCKMIAPILDEIADEYQGKLTVAKLNIDQNPGTAPKYGIRGIPTLLLFKNGEVAATKVGALSKGQLKEFLDANLA
B8: Cdk7 (enzyme, not shown: small tags and cut ends)
chain: ALDVKSRAKRYEKLDFLGEGQFATVYKARDKNTNQIVAIKKIKLGHRSEAKDGINRTALREIKLLQELSHPNIIGLLDAFGHKSNISLVFDFMETDLEVIIKDNSLVLTPSHIKAYMLMTLQGLEYLHQHWILHRDLKPNNLLLDENGVLKLADFGLAKSFGSPNRAYTHQVVTRWYRAPELLFGARMYGVGVDMWAVGCILAELLLRVPFLPGDSDLDQLTRIFETLGTPTEEQWPDMCSLPDYVTFKSFPGIPLHHIFSAAGDDLLDLIQGLFLFNPCARITATQALKMKYFSNRPGPTPGCQLPRPNCPVETLKEQSNPALAIKRKRTEALEQGGLPKKLIF
notes: Bait strain named only on the sheet
B9: pep13 (FIG. 4B numbering), thioredoxin prey fusion (designed binder, not shown: large carriers)
chain: MSDKIIHLTDDSFDTDVLKADGAILVDFWAEWCGPPVCCMMYGHRTAPHSVFNVDGPCKMIAPILDEIADEYQGKLTVAKLNIDQNPGTAPKYGIRGIPTLLLFKNGEVAATKVGALSKGQLKEFLDANLA
B10: peptide 13 (FIG. 3A/3B numbering), thioredoxin prey fusion (designed binder, not shown: large carriers; small tags and cut ends)
chain: MSDKIIHLTDDSFDTDVLKADGAILVDFWAEWCGPSVRMRYGIDAFFDLGGLLHGGPCKMIAPILDEIADEYQGKLTVAKLNIDQNPGTAPKYGIRGIPTLLLFKNGEVAATKVGALSKGQLKEFLDANLA
modifications: peptide loop embedded in the thioredoxin active-site loop between Cys33 and Cys36 (may form a disulfide)
B11: pep5 (designed binder, not shown: large carriers; small tags and cut ends)
chain: MSDKIIHLTDDSFDTDVLKADGAILVDFWAEWCGPSVRMRYGIDAFFDLGGLLHGGPCKMIAPILDEIADEYQGKLTVAKLNIDQNPGTAPKYGIRGIPTLLLFKNGEVAATKVGALSKGQLKEFLDANLA
modifications: peptide loop embedded in the thioredoxin active-site loop between Cys33 and Cys36 (may form a disulfide)
notes: the purified His6 form is m42
B12: pep9 (FIG. 4B numbering), thioredoxin prey fusion (designed binder, not shown: large carriers)
chain: MSDKIIHLTDDSFDTDVLKADGAILVDFWAEWCGPQQRFVFSPSWFTCAGTSDFWGPEPLFDWTRDGPCKMIAPILDEIADEYQGKLTVAKLNIDQNPGTAPKYGIRGIPTLLLFKNGEVAATKVGALSKGQLKEFLDANLA
B13: pep11 (designed binder, not shown: small tags and cut ends)
chain: MSDKIIHLTDDSFDTDVLKADGAILVDFWAEWCGPWRRMELDAEIRWVKPISPLEGPCKMIAPILDEIADEYQGKLTVAKLNIDQNPGTAPKYGIRGIPTLLLFKNGEVAATKVGALSKGQLKEFLDANLA
modifications: Peptide loop sits in the TrxA active-site loop; flanking Cys33 and Cys36 may form a disulfide
notes: The purified His6 form is m45

Experiments:
Cdk4 [1] = target: T1, Cdk4 (Homo sapiens (Human), UniProt P11802 2-303); experiment: yeast interaction trap mating assay (FIG. 4A)
T1 construct: construct not described
T1 sequence (P11802 2-303 limits assumed): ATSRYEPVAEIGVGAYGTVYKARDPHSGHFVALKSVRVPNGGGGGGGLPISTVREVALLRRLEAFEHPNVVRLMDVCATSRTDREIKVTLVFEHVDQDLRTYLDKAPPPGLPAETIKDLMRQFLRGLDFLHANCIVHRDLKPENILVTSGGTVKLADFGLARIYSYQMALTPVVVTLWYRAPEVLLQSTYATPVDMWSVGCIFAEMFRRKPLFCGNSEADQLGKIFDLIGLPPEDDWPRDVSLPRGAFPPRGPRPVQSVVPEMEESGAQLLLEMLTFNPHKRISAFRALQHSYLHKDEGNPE

LexA-Cdk3 bait = target: T2, LexA-Cdk3 bait (human, UniProt Q00526 1-305, limits assumed); experiment: yeast interaction trap mating assay, lacZ reporter on Xgal
T2 construct: also called human Cdk3; not shown: bacterial LexA protein
T2 sequence (Q00526 whole entry): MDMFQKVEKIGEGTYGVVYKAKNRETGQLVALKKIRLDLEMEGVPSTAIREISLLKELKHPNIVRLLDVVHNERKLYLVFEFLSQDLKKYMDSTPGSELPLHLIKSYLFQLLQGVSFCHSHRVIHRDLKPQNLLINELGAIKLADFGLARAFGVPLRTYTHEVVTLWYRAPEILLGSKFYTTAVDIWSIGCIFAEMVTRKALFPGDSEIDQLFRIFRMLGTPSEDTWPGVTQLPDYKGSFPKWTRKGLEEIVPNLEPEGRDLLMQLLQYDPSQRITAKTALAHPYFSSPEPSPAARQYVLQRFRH

CDC28 = target: T3, CDC28 (Saccharomyces cerevisiae (strain ATCC …, UniProt P00546 1-298)); experiment: as above
T3 construct: bait construct not described
T3 sequence (P00546 whole entry): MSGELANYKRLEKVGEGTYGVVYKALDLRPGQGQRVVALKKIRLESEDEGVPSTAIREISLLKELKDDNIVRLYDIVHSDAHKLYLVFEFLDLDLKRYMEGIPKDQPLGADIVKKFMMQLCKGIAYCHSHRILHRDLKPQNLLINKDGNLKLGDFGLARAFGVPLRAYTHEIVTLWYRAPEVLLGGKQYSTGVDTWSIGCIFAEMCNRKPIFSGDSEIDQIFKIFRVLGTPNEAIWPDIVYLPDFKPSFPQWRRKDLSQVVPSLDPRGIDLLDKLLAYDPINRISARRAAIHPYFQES

Cdc2 = target: T4, Cdc2 (Homo sapiens (Human), UniProt P06493 1-297); experiment: as above
T4 construct: bait construct and species not described
T4 sequence (P06493 whole entry): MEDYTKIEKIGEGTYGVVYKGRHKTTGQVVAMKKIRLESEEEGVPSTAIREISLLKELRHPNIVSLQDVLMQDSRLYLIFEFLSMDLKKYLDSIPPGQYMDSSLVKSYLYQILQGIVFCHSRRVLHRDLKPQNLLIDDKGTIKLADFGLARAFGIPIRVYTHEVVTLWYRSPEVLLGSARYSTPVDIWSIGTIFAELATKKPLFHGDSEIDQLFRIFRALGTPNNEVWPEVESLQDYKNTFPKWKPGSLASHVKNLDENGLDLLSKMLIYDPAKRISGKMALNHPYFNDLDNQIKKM

Drosophila Cdc2c = target: T5, Drosophila Cdc2c (Drosophila, UniProt P23573 1-314, limits assumed); experiment: as above
T5 construct: bait construct not described
T5 sequence (P23573 whole entry): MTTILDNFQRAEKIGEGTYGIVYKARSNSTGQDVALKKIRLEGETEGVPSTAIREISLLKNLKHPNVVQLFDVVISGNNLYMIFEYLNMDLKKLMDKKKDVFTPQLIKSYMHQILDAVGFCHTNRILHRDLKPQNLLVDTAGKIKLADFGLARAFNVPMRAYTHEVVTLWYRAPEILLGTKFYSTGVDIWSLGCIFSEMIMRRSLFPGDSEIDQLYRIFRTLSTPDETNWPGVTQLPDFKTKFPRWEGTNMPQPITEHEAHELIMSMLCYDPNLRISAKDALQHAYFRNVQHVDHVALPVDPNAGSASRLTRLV

Cdk6 = target: T6, Cdk6; experiment: as above
T6 construct: Bait strain named only on the sheet

Cdk7 = target: B8; experiment: as above
Cdk4 [2] = target: T1, Cdk4; experiment: as above
[3] = target: B7; experiment: as above
[4] = target: B1; experiment: as above
[5] = target: B12; experiment: as above
[6] = target: B4; experiment: as above
[7] = target: B9; experiment: as above
[8] = target: B3; experiment: as above
[9] = target: human Cdk2 expressed from a plasmid in cdc28ts yeast (human, UniProt P24941 1-298); experiment: cell-based or functional assay

Row | Binder | binding result (Cdk4 [1]) | binding result (LexA-Cdk3 bait) | binding result (CDC28) | binding result (Cdc2) | binding result (Drosophila Cdc2c) | binding result (Cdk6) | binding result (Cdk7) | binding result (Cdk4 [2]) | binding result [3] | binding result [4] | binding result [5] | binding result [6] | binding result [7] | binding result [8] | fold decrease in plating efficiency of a Cdk2-dependent cdc28-1N yeast strain at the restrictive temperature [9]
1 | B1 | no binding | no binding | no binding | no binding | no binding |  |  |  |  |  |  |  |  |  | 
2 | B2 |  | no binding | no binding | no binding | no binding | no binding | no binding | no binding |  |  |  |  |  |  | 
3 | B3 | no binding | no binding | no binding | no binding | no binding |  |  |  |  |  |  |  |  |  | 
4 | B4 | no binding | no binding | no binding | no binding | no binding |  |  |  |  |  |  |  |  |  | 
5 | B5 |  | no binding | no binding | no binding | no binding | no binding | no binding | no binding |  |  |  |  |  |  | 
6 | B6 |  | no binding | no binding | no binding | no binding | no binding | no binding | no binding |  |  |  |  |  |  | 
7 | B7 | no binding | no binding | no binding | no binding | no binding |  |  |  |  |  |  |  |  |  | 
8 | B8 |  |  |  |  |  |  |  |  | no binding | no binding | no binding | no binding | no binding | no binding | 
9 | B9 | no binding | no binding | no binding | no binding | no binding |  |  |  |  |  |  |  |  |  | 
10 | B10 |  |  |  |  |  |  |  |  |  |  |  |  |  |  | 10 fold
11 | B11 |  | binds | no binding | no binding | no binding | no binding | no binding | no binding |  |  |  |  |  |  | 
12 | B12 | no binding | no binding | no binding | no binding | no binding |  |  |  |  |  |  |  |  |  | 
13 | B13 |  | no binding | no binding | no binding | no binding | no binding | no binding | no binding |  |  |  |  |  |  | 
